Results reported in US20220211857A1, “POLYPEPTIDE DERIVATIVE AND PREPARATION METHOD THEREOF” (NINGBO KUNPENG BIOTECH CO., LTD., priority 2019, published 2022).
Where a SMILES comes first, the peptide text is derived from it. The star is where a group is joined. X6 = O=C(O)CCCCCCCCCCCCCCC(=O)NC(CCC(=O)NCCOCCOCC(=O)NCCOCCOCCn1cc(CCOC(=O)*)nn1)C(=O)O; X3 = O=C(O)CCCCCCCCCCCCCCC(=O)NC(CCC(=O)NCCOCCOCCOCCOCCn1cc(CCOC(=O)*)nn1)C(=O)O; X2 = O=C(O)CCCCCCCCCCCCCCC(=O)NC(CCC(=O)NCCn1cc(CCOC(=O)*)nn1)C(=O)O

Assay: Pharmacokinetics studies of PTH-1 derivatives in rats (single subcutaneous injection, LC-MS/MS, NCA)
Format: in vivo
Conditions: rat, experiment of Example 10 repeated in the same way
Description: PTH-1 and L6-GFA16-PTH-1 were injected subcutaneously with a single administration of 8.6 μg/kg, respectively. Animals in each group were collected blood at 0 min, 5 min, 15 min, 30 min, 1 h, 2 h, and 4 h after administration. […] Exposure time of drugs in vivo was prolonged and exposure doses were increased.

Row | Compound | half-lives (in words)
1 | CC[C@H](C)[C@H](NC(=O)[C@H](CCC(=O)O)NC(=O)[C@H](CO)NC(=O)[C@@H](NC(=O)[C@@H](N)CO)C(C)C)C(=O)N[C@@H](CCC(N)=O)C(=O)N[C@@H](CC(C)C)C(=O)N[C@@H](CCSC)C(=O)N[C@@H](Cc1c[nH]cn1)C(=O)N[C@@H](CC(N)=O)C(=O)N[C@@H](CC(C)C)C(=O)NCC(=O)N[C@@H](CCCNC(=N)N)C(=O)N[C@@H](Cc1c[nH]cn1)C(=O)N[C@@H](CC(C)C)C(=O)N[C@@H](CC(N)=O)C(=O)N[C@@H](CO)C(=O)N[C@@H](CCSC)C(=O)N[C@@H](CCC(=O)O)C(=O)N[C@@H](CCCNC(=N)N)C(=O)N[C@H](C(=O)N[C@@H](CCC(=O)O)C(=O)N[C@@H](Cc1c[nH]c2ccccc12)C(=O)N[C@@H](CC(C)C)C(=O)N[C@@H](CCCNC(=N)N)C(=O)N[C@@H](CCCCNC(=O)OCCc1cn(CCOCCOCCOCCOCCNC(=O)CCC(NC(=O)CCCCCCCCCCCCCCC(=O)O)C(=O)O)nn1)C(=O)N[C@@H](CCCNC(=N)N)C(=O)N[C@@H](CC(C)C)C(=O)N[C@@H](CCC(N)=O)C(=O)N[C@@H](CC(=O)O)C(=O)N[C@H](C(=O)N[C@@H](Cc1c[nH]cn1)C(=O)N[C@@H](CC(N)=O)C(=O)N[C@@H](Cc1ccccc1)C(=O)O)C(C)C)C(C)C (stereo partly drawn) [L4-GFA16-PTH] (H-SVSEIQLMHNLGRHLNSMERVEWLRK(X3)RLQDVHNF-OH) | significantly prolonged
2 | CC[C@H](C)[C@H](NC(=O)[C@H](CCC(=O)O)NC(=O)[C@H](CO)NC(=O)[C@@H](NC(=O)[C@@H](N)CO)C(C)C)C(=O)N[C@@H](CCC(N)=O)C(=O)N[C@@H](CC(C)C)C(=O)N[C@@H](CCSC)C(=O)N[C@@H](Cc1c[nH]cn1)C(=O)N[C@@H](CC(N)=O)C(=O)N[C@@H](CC(C)C)C(=O)NCC(=O)N[C@@H](CCCNC(=N)N)C(=O)N[C@@H](Cc1c[nH]cn1)C(=O)N[C@@H](CC(C)C)C(=O)N[C@@H](CC(N)=O)C(=O)N[C@@H](CO)C(=O)N[C@@H](CCSC)C(=O)N[C@@H](CCC(=O)O)C(=O)N[C@@H](CCCNC(=N)N)C(=O)N[C@H](C(=O)N[C@@H](CCC(=O)O)C(=O)N[C@@H](Cc1c[nH]c2ccccc12)C(=O)N[C@@H](CC(C)C)C(=O)N[C@@H](CCCNC(=N)N)C(=O)N[C@@H](CCCCNC(=O)OCCc1cn(CCNC(=O)CCC(NC(=O)CCCCCCCCCCCCCCC(=O)O)C(=O)O)nn1)C(=O)N[C@@H](CCCNC(=N)N)C(=O)N[C@@H](CC(C)C)C(=O)N[C@@H](CCC(N)=O)C(=O)N[C@@H](CC(=O)O)C(=O)N[C@H](C(=O)N[C@@H](Cc1c[nH]cn1)C(=O)N[C@@H](CC(N)=O)C(=O)N[C@@H](Cc1ccccc1)C(=O)O)C(C)C)C(C)C (stereo partly drawn) [L0-GFA16-PTH] (H-SVSEIQLMHNLGRHLNSMERVEWLRK(X2)RLQDVHNF-OH) | significantly prolonged
3 | CC[C@H](C)[C@H](NC(=O)[C@H](CCC(=O)O)NC(=O)[C@H](CO)NC(=O)[C@@H](NC(=O)[C@@H](N)CO)C(C)C)C(=O)N[C@@H](CCC(N)=O)C(=O)N[C@@H](CC(C)C)C(=O)N[C@@H](CCSC)C(=O)N[C@@H](Cc1c[nH]cn1)C(=O)N[C@@H](CC(N)=O)C(=O)N[C@@H](CC(C)C)C(=O)NCC(=O)N[C@@H](CCCNC(=N)N)C(=O)N[C@@H](Cc1c[nH]cn1)C(=O)N[C@@H](CC(C)C)C(=O)N[C@@H](CC(N)=O)C(=O)N[C@@H](CO)C(=O)N[C@@H](CCSC)C(=O)N[C@@H](CCC(=O)O)C(=O)N[C@@H](CCCNC(=N)N)C(=O)N[C@H](C(=O)N[C@@H](CCC(=O)O)C(=O)N[C@@H](Cc1c[nH]c2ccccc12)C(=O)N[C@@H](CC(C)C)C(=O)N[C@@H](CCCNC(=N)N)C(=O)N[C@@H](CCCCNC(=O)OCCc1cn(CCOCCOCCNC(=O)COCCOCCNC(=O)CCC(NC(=O)CCCCCCCCCCCCCCC(=O)O)C(=O)O)nn1)C(=O)N[C@@H](CCCNC(=N)N)C(=O)N[C@@H](CC(C)C)C(=O)N[C@@H](CCC(N)=O)C(=O)N[C@@H](CC(=O)O)C(=O)N[C@H](C(=O)N[C@@H](Cc1c[nH]cn1)C(=O)N[C@@H](CC(N)=O)C(=O)N[C@@H](Cc1ccccc1)C(=O)O)C(C)C)C(C)C (stereo partly drawn) [L5-GFA16-PTH] (H-SVSEIQLMHNLGRHLNSMERVEWLRK(X6)RLQDVHNF-OH) | significantly prolonged
